Source: patent US20070184522A1, “Cell death modulation via antagonists of Fasl and Fas activation” (University of Pittsburgh of the Commonwealth System of …, priority 2004, published 2007)

Columns and labels:
[1] = system: liver (hepatocyte apoptosis); assay: Jo2 (Fas agonist) induced liver apoptosis in Balb/c mice; assay type: in vivo; settings: for percentage of apoptotic cells by TUNEL staining: Balb/c mice liver, Jo2, AlphaMet 100 micrograms or YLGA polypeptides 300 micrograms per mouse; for enzymatic activity of caspase-3 in liver lysates: compared to Jo2 only group
Protocol: For FIG. 5a, Balb/c mice (10 per group) were injected with Jo2 (2.5 μg/g of mouse body weight) in the presence of AlphaMet or polypeptides as indicated, and analyzed for the extent of hepatocyte apoptosis and liver damage by immunohisological and biochemical techniques. The percentage of TUNEL positive was determined in multiple liver lobes of each liver in random fields counting at least 500 hepatocytes in a double-blind manner. Frame A: Normal mouse liver; Frame B: Jo2 treated mouse liver; Frame C: Jo2 plus AlphaMet treated mouse; Frame D: Jo2 plus YLGA 12 mer; Frame E: Jo2 and YLGA tetramer treatment; Frame F: Jo2 and YLGA mutated AlphaMet, respectively. These studies were repeated three times with identical outcome. FIG. 5b graphically presents the quantification of hepatocyte apoptosis TUNEL positive nuclei. The data were analyzed by One-way ANOVA and P<0.05 was considered significant. For FIG. 5c, an equal amount of livers were subjected to Caspase 3 activity assay using DEVD-AFC as a substrate and DEVD-CHO as an inhibitor, as recommended by the manufacturer. The data are the mean and SE and were repeated in three independent experiments. The data were analyzed by One-way ANOVA and P<0.05 was considered significant.
Animal studies. Male Balb/c mice weighing 30 grams were purchased from Jackson Laboratory and used according to an IACUC approved protocol. Induction of liver apoptosis and determination of Caspase 3 activity and histological evaluation were performed as described previously (Wang et al., 2002). Animals (10 per group) were anesthetized by isoflurane and injected with Jo2 (Pharmingen 2.5 microgram/gram body weight) with or without AlphaMet (100 micrograms recombinant AlphaMet or 300 micrograms of synthetic YLGA polypeptides) in a total of 100 micro liters of saline per mouse. Control groups (N=10 per group) consisted of saline only, Jo2 only, and Jo2 plus mutated AlphaMet or scrambled polypeptide. During the experiment which lasted approximately 6 hours, animals were closely monitored every 10 to 15 minutes and if they appeared to be moribund were immediately sacrificed and liver tissue and was removed for biochemical and histological studies.
It is well known in the literature that the liver is one of the most sensitive organs to Fas mediated apoptosis. Injection of the Fas agonist Jo2 antibody, which causes mice to experience Fas aggregation resulting in massive hepatocyte apoptosis, fulminant hepatic failure, and death within hours. This model was used to test if AlphaMet and the YLGA polypeptides could protect livers from Fas-induced apoptosis. Given the fact that AlphaMet blocked Fas trimerization and Fas micro-aggregation, and the fact that Fas oligomerization is essential in Fas signaling, it was reasonable to suspect that AlphaMet could block the Fas mediated apoptosis in vivo. Balb/c mice were used in these experiments. Groups of animals (n=10) were injected systemically with Jo2 ([…] of body weight) with or without purified recombinant AlphaMet, synthetic 12 mer YLGA polypeptide (HHIYLGATNYIY, SEQ ID NO:26), or their control counterparts (N-terminally truncated AlphaMet, YLGA mutated recombinant AlphaMet or scrambled 12 mer polypeptide) as described in the materials and methods. Mice were sacrificed within 6 hours or sooner if they were moribund and their livers were subjected to biochemical determination of Caspase-3 activity and histological analyses (i.e. TUNEL staining).

Hepa 1-6 cells = assay: Fas-induced apoptosis in Hepa 1-6 cells (LDH activity assay); assay type: cell-based, mouse; settings: for FasL induced apoptosis: serum deprived Hepa 1-6 cells, crosslinked mouse Fas ligand 1 μg/ml overnight, LDH
Protocol: For FIG. 4a, Jurkat cells (1.5×10^5) were overnight treated in triplicate with 5 ng/ml of crosslinked human Fas ligand with or without 5 μg/ml of recombinant AlphaMet or 1 μg/ml of the indicated polypeptides. Percent apoptosis was determined by Trypan Blue staining using a hemocytometer. The data are representative and were repeated at least four times. […] The 17 kDa fragment of cleaved Caspase 3 is visualized by this antibody. The blot was reprobed for β-actin as a loading control. For FIG. 4c, serum deprived Hepa 1-6 cells (3×10^5) were overnight treated with 1 μg/ml of crosslinked mouse Fas ligand with or without AlphaMet or the indicated polypeptide. Media were collected and centrifuged to pellet the dead cells. […] The data in FIG. 4c represents three independent experiments.
Apoptosis assay. Pre-washed Jurkat cells in RPMI 1640 medium containing 1% FBS were inoculated in 96-wells at a density of 10^5 cells per well. Apoptosis was induced by cross-linked human Fas-ligand (R&D Systems) at a concentration of 0.5 ng/ml or Anti-Fas (human, activating) clone CH11 (Upstate biotechnology) at a concentration of 500 ng /ml. Hepa 1-6 cells were overnight starved before induction of apoptosis. The apoptosis in Hepa 1-6 was induced by anti-mouse Fas antibody Jo2 (200 ng/ml) or human recombinant Fas-ligand. The extent of cell viability and apoptosis was determined by several methods such as Trypan Blue stain, flow cytometry, LDH assay, and Hoechst staining.

| Molecule | percentage of apoptotic cells by TUNEL staining [1] | enzymatic activity of caspase-3 in liver lysates ([1]; Balb/c mice) | FasL induced apoptosis (Hepa 1-6 cells) | liver hemorrhage (gross and microscopic) ([1]; Balb/c mice, Jo2 injection, within 6 hours) | apoptosis induced by the Fas agonist Jo2 (Hepa 1-6 cells; Hepa 1-6 cells) | resistance to Fas killing of stable cell lines expressing the protein (Hepa 1-6 cells; Hepa 1-6 stable lines versus control vector clones) |
| --- | --- | --- | --- | --- | --- | --- |
| HHIYLGATNYIY [12 mer] | 25% | significant reduction | significantly inhibited FasL induced apoptosis |  |  |  |
| YLGA [YLGA 4 mer] | 40% |  | significantly inhibited FasL induced apoptosis |  |  |  |
| alpha subunit of Met (AlphaMet), amino acid residues 1 to 306, His-tagged (receptor, mouse) MKAPTVLAPGILVLLLSLVQRSHGECKEALVKSEMNVNMKYQLPNFTAETPIQNVVLHGHHIYLGATNYIYVLNDKDLQKVSEFKTGPVLEHPDCLPCRDCSSKANSSGGVWKDNINMALLVDTYYDDQLISCGSVNRGTCQRHVLPPDNSADIQSEVHCMFSPEEESGQCPDCVVSALGAKVLLSEKDRFINFFVGNTINSSYPPGYSLHSISVRRLKETQDGFKFLTDQSYIDVLPEFLDSYPIKYIHAFESNHFIYFLTVQKETLDAQTFHTRIIRFCSVDSGLHSYMEMPLECILTEKRRKRHHHHHH | 18% | significant reduction | significantly inhibited FasL induced apoptosis | little or no sign of hemorrhage | efficiently inhibited | dramatic resistance to Fas killing |
